According to PMC5148612, “Mechanism of cargo-directed Atg8 conjugation during selective autophagy” (eLife, 2016):

Tests used:
Settings in all cases: both partners purified
[1] = target: T1, Atg12~Atg5 (K57E,N84E) conjugate (S. cerevisiae, UniProt P38316 1-186; Q12380 1-294, K57E | N84E, conjugated to Atg5 | conjugated to Atg12); assay: SEC; separately purified proteins mixed in a molar ratio 1:1 for 30 min at 4°C or on ice; the resulting complex purified on Superdex S200 16/60
T1 construct: Atg12, S. cerevisiae; Atg5, S. cerevisiae; source: E. coli Rosetta pLysS, purified
T1 sequence (looked up) 1: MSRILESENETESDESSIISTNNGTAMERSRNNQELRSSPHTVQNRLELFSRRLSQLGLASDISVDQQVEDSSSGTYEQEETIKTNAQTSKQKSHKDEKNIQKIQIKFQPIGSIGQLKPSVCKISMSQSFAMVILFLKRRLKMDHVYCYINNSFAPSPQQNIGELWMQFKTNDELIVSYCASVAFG
T1 sequence (looked up) 2: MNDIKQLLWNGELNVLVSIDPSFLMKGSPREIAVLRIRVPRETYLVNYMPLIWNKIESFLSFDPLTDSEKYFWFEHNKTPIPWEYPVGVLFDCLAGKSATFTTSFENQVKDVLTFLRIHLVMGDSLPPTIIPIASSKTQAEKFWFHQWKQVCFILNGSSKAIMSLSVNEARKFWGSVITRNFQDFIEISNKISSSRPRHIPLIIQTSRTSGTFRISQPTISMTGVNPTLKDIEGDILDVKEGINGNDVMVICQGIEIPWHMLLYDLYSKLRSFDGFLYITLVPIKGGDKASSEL

[2] = target: T2, Atg12~Atg5 conjugate (S. cerevisiae, UniProt P38316 1-186; Q12380 1-294, conjugated to Atg5 (Atg12~Atg5 protein conjugate) | conjugated to Atg12); assay: as above
T2 construct: Atg12, S. cerevisiae; Atg5, S. cerevisiae; the two chains are covalently joined; source: E. coli Rosetta pLysS, co-expression of 6xHis-Atg5, Atg12, Atg7 and Atg10, purified
T2 sequence (looked up) 1: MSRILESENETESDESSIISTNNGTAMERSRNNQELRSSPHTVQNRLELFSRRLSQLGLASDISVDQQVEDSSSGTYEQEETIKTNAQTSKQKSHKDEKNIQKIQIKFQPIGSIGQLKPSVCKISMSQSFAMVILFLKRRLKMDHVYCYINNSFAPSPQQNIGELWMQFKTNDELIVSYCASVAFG
T2 sequence (looked up) 2: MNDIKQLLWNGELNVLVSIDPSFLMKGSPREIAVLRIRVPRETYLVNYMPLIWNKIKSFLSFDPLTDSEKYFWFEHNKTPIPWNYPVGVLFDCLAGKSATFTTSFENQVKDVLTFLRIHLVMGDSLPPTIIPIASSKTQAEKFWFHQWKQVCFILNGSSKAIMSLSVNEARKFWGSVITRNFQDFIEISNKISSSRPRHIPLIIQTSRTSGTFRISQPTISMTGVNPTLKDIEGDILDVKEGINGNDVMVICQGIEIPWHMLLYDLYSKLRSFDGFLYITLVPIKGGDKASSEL

[3] = target: T3, Atg12~Atg5 (N84E) conjugate (S. cerevisiae, UniProt P38316 1-186; Q12380 1-294, N84E, conjugated to Atg5 | conjugated to Atg12); assay: as above
T3 construct: Atg12, S. cerevisiae; Atg5, S. cerevisiae; source: E. coli Rosetta pLysS, purified
T3 sequence (looked up) 1: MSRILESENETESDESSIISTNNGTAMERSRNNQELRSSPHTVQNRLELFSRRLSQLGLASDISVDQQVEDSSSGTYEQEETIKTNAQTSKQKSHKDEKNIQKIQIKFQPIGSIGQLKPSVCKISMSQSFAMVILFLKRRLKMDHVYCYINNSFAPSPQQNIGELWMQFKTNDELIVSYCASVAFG
T3 sequence (looked up) 2: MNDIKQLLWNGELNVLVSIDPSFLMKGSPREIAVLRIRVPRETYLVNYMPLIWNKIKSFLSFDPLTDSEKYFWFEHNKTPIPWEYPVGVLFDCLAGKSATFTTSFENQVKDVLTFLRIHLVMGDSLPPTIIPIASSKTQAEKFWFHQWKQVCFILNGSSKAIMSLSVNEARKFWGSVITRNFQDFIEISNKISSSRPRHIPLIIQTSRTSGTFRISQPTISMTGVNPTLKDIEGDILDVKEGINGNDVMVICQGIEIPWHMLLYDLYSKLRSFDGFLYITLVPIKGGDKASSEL

[4] = target: T4, Atg12~Atg5 (K57E) conjugate (S. cerevisiae, UniProt P38316 1-186; Q12380 1-294, K57E, conjugated to Atg5 | conjugated to Atg12); assay: as above
T4 construct: Atg12, S. cerevisiae; Atg5, S. cerevisiae; source: E. coli Rosetta pLysS, purified
T4 sequence (looked up) 1: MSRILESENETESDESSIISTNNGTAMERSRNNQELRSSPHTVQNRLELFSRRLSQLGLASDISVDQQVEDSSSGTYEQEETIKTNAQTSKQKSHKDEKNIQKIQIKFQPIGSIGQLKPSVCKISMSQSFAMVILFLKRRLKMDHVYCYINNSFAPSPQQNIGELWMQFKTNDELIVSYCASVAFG
T4 sequence (looked up) 2: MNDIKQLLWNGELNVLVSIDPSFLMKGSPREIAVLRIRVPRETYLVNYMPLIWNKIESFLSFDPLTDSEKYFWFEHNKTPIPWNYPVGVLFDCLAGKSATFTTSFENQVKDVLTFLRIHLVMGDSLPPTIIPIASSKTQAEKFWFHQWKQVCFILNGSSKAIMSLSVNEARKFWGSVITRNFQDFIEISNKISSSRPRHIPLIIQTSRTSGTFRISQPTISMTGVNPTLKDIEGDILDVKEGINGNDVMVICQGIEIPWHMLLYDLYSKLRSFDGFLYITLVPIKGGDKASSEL

[5] = target: T5, Atg19 (S. cerevisiae, UniProt P35193 1-415); assay: microscopy-based protein-protein interaction assay on beads; beads with GST-prApe1(1–41) at 25 µM, washed, Atg19 15 µM, washed, Atg12~Atg5-Atg16-mCherry (wild type and mutants) 8.8 µM (Figure 5B, C)
T5 construct: Atg19, S. cerevisiae; printed without a tag; also called Atg19 wild type
T5 sequence (looked up): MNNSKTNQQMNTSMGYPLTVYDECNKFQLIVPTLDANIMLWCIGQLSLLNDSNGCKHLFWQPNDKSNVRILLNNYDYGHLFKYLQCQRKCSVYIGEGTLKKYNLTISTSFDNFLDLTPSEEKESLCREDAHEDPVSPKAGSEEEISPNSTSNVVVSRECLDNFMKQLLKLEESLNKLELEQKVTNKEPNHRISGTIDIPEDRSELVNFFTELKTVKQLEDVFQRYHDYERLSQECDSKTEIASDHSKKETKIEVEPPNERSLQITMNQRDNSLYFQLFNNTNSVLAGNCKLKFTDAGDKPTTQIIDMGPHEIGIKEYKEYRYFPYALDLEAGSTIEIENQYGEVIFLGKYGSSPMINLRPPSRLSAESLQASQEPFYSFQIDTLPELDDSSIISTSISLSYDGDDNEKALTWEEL

[6] = target: T5, Atg19; assay: microscopy-based recruitment to cargo mimetic beads; beads with GST-prApe1(1–45) 25 µM, Atg19 15 µM, Atg12~Atg5-Atg16-mCherry 12.5 µM, washed after each step, with ATTO390-containing SUVs (Figure 6, Figure 6—figure supplement 2)
[7] = target: T6, mCherry-Atg19 (S. cerevisiae, UniProt P35193 1-415); assay: microscopy-based protein-protein interaction assay on beads; beads with GST-prApe1(1–45) at 5 µM, washed, Atg19 (wild type, mutant or mCherry-Atg19) 5 µM, washed, Atg12~Atg5-Atg16-meGFP 5 µM (Figure 3—figure supplement 2, Figure 6—figure supplement 1)
T6 construct: Atg19, S. cerevisiae; also called 6xHis-mCherry-Atg19; source: E. coli Rosetta pLysS, purified via a hexahistidine tag; not shown: mCherry, N-terminal, kept
T6 sequence (looked up): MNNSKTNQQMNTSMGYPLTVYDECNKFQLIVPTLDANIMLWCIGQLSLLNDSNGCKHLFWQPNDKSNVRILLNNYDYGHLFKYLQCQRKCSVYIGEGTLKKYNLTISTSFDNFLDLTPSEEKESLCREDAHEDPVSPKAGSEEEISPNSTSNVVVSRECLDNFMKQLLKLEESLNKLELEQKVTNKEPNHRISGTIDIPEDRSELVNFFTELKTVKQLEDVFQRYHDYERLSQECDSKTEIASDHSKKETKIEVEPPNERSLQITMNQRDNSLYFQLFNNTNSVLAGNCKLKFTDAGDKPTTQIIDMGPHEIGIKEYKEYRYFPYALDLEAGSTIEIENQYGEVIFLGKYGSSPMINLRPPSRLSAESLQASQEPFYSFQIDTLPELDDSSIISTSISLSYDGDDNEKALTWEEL

B1: Atg16-mCherry (natural protein, S. cerevisiae, UniProt Q03818 1-150, looked up)
chain: MGNFIITERKKAKEERSNPQTDSMDDLLIRRLTDRNDKEAHLNELFQDNSGAIGGNIVSHDDALLNTLAILQKELKSKEQEIRRLKEVIALKNKNTERLNDELISGTIENNVLQQKLSDLKKEHSQLVARWLKKTEKETEAMNSEIDGTK
notes: Atg16, S. cerevisiae; also called 6xHis-Atg16-mCherry; source: E. coli Rosetta pLysS, purified (Ni-NTA, TEV, Superdex 200); not shown: His6, N-terminal, cleaved; mCherry, C-terminal, kept
[1]
  binding result: binds
[2]
  binding result: binds
[3]
  binding result: binds
[4]
  binding result: binds

B2: GST-prApe1(1–41) (domain or fragment, S. cerevisiae, UniProt P14904 1-41, looked up)
chain: MEEQREILEQLKKTLQMLTVEPSKNNQIANEEKEKKENENS
notes: prApe1, S. cerevisiae, propeptide; also called prApe1 propeptide; source: E. coli Rosetta pLysS, purified as a GST fusion protein; not shown: GST, N-terminal, kept
[5]
  binding result: binds

B3: GST-prApe1(1–45) (domain or fragment, S. cerevisiae, UniProt P14904 1-45, looked up)
chain: MEEQREILEQLKKTLQMLTVEPSKNNQIANEEKEKKENENSWCIL
notes: prApe1 (precursor aminopeptidase 1), S. cerevisiae, propeptide; also called prApe1 propeptide; cargo mimetic beads; source: E. coli Rosetta pLysS, purified; not shown: GST, N-terminal, kept
[6]
  binding result: binds
[7]
  binding result: binds
